T1: recombinant mouse PD-1-his protein (Cat#:50124-M08H, Sino Biological Inc) (mouse, UniProt Q02242 25-167)
T1 construct: Bought protein used in Biacore and indirect ELISA; not shown: his tag
T1 sequence (looked up): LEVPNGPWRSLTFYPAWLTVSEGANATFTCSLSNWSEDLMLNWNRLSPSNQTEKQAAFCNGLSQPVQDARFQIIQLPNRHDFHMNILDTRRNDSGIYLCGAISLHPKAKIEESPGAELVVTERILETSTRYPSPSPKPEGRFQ

B1: mouse anti-PD-1 monoclonal antibody E1A9C8A7 (antibody, V domains shown)
VH: QVQLQQSGAEVVRPGVSVRISCKGSGYTFSDYVMHWMKQSHGESLEWIGVISTYHIPAVYNQKFKGKATMTVDKSSSTVYLELARLTSEDSAIYYCAREVYGDSYYFDVWGAGTTVTVSS
VL: DVLMTQIPLSLPVSLGDQVSISCRSSQSIVHSNGNTYLEWYLQKPGQSPKLLIYKVSNRFSGVPDRFSGSGSGTDFTLKISRVEAEDLGVYYCFQGSHVPYTFGGGTKLEIK
notes: Hybridoma-derived mouse mAb purified on Protein A; also called Mouse E1A9C8A7
B2: mouse anti-PD-1 monoclonal antibody E1G5D1H1 (antibody, V domains shown)
VH: EVQLVESGGGLVKPGGSLKLSCAASGFTFSDFYMYWVRQTPEKRLEWVATISNSGTQTYYLDSVKGRFTISRDNAKNNLYLQMSSLKSEDTAMYYCARDYYRYDSWYFDVWGAGTTVTVSS
VL: DIVLTQSPASLAVSQGQRATISCRASESVDFYGTSLMQWFQLKPGQPPKLLIYAASNVESGVPARFSGSGSGTNFSLNIHPVEEDDIAMYFCQQSRKVPWTFGGGTNLEIK
notes: Hybridoma-derived mouse mAb; also called EIG5D1H1; E1G5DIH1

Assays:
[1] = biological target: T2, cynomolgus PD-1-his protein (Cat#:PD1-05223, Acro biosystems Inc.) (cynomolgus, UniProt B0LAJ3 25-170); test: indirect ELISA on coated cynomolgus PD-1-his
T2 construct: Bought protein used in Biacore and indirect ELISA; also called monkey PD-1; Cyno PD-1

[2] = biological target: T3, human PD-1-his protein prepared in-house (human, UniProt Q15116 25-167, biotin-labeled (sites not given)); test: capture ELISA, antibody captured, biotin human PD-1-his detected
T3 construct: also called biotin labeled human PD-1-his
Method: Briefly, 96-well micro plates were coated with 100 μl 2 μg/ml AffiniPure Goat Anti-Mouse IgG F(ab′)₂ fragment specific (Cat#:115-005-072, Jackson lmmunoResearch) or Goat-anti-human IgG (Cat#:109-005-097, Jackson ImmunoResearch, for the positive control and negative control) in PBS overnight at 4° C. Plates were washed once with wash buffer (PBST, PBS+0.05% Tween-20) and then blocked with 200 μl/well blocking buffer (5% w/v non-fatty milk in PBST) for 2 hours at 37° C. […] After a final wash, plates were incubated with 100 μl/well TMB (Cat#:TMB-S-002, Innoreagents) at room temperature.
For the capture ELISA, 96-well plates were coated with 100 μl 2 μg/ml AffiniPure Goat Anti-Human IgG, Fcγ fragment specific (Cat#:109-005-098, Jackson Immunoresearch) instead of AffiniPure goat-anti-mouse IgG F(ab′)₂ fragment specific.

[3] = biological target: T4, in house made human PD-1-Fc protein (human, biotin-labeled (sites not given)); test: blocking FACS: biotin human PD-1-Fc + antibody on GS-C2/PD-L1 cells (competitor: cell-surface human PD-L1)
T4 construct: also called biotin-labeled human PD-1-Fc

[4] = biological target: T1, recombinant mouse PD-1-his protein …; test: indirect ELISA on coated mouse PD-1-his
Method: (§1) Briefly, 96-well micro plates were coated with 100 μl 2 μg/ml mouse PD-1-his (Cat#:50124-M08H, Sino Biological Inc) or 2 μg,/ml cynomolgus PD-1-his (Cat#:PD1-05223, Acro biosystems Inc.) in carbonate/bicarbonate buffer (pH 9.6) for 2 hours at 37° C. Plates were washed once with wash buffer (PBST, PBS+0.05% Tween-20) and then blocked with 200 μl blocking buffer (5% w/v non-fatty milk in PBST) for 2 hours at 37° C. […] ELISA plates were washed 4 times and incubated with Peroxidase AffiniPure goat anti-mouse IgG, Fcγ Fragment Specific (1:5000 dilution in PBST buffer, Cat#:115-035-071, Jackson ImmunoResearch Laboratories, Inc., 100 μl/well) or Peroxidase AffiniPure F(ab′)₂ Fragment Goat Anti-Human IgG, Fcγ fragment specific (Cat#:109-036-098, Jackson ImmunoResearch, for the controls) for 40 minutes at 37° C. After a final wash, plates were incubated with 100 μl/well TMB (Cat#:TMB-S-002, innoreagents) at room temperature. The reaction was stopped 3-10 minutes later with 50 μl/well 1M H₂SO₄, and the absorbance was read on a microplate reader using dual wavelength mode with 450 nm for TMB and 630 nm as the reference wavelength. Then the OD (450-630) values were plotted against antibody concentrations. Data was analyzed using GraphPad Prism software and EC₅₀ values were reported.

[5] = biological target: T2, cynomolgus PD-1-his protein …; test: indirect ELISA on coated cynomolgus PD-1-his; unit from the axis 'Con of mAb, nM.'
Method: as §1

Row | EC50 [1] [pM] | EC50 [2] [pM] | IC50 [3] [pM] | binding result [4] | EC50 [5] [pM] | Binder
1 | 70 | 140 | 420 | – | – | B1
2 | – | – | – | no binding (tested: 66.7 nM) | 142 | B2
